Assay results reported in patent US20130101571A9, “ANTIDOTES FOR NITROBENZODIAZEPINES” (Academia Sinica, priority 2011, published 2013).
Positions count from the first letter of the chain named. Names may count otherwise. “Also recorded” adds a separate entry of the source.

What was measured:
[1] = system: nfsb-wt and nfsb-n71s/f124w-transformed E. coli BL21(DE3); test: Disk assay for FZ sensitivity (disk diffusion, zones of inhibition); type: cell-based; settings: E. coli expressing wild-type enzyme or N71S/F124W mutant; dosage up to 400 μg; 24 hrs
Experimental: LB plates were uniformly streaked with 0.1 ml of bacterial cell suspensions having an OD600 value of 0.8. Sterile 7 mm filter paper disks saturated with 7 μl of each chemical, including FZ alone, metronidazole (MTZ) alone, and a combination of FZ and MTZ at a ratio of 1/1 by weight, in the amounts indicated in FIG. 4 were placed on the plates. The cells were incubated for 24 hrs before the zones of inhibition were measured.^22

FZ-induced hypnosis = test: Sleep-time (anti-FZ hypnosis) study in mice; type: in vivo, Balb/c mice; settings: for effect on sleep-time in treated mice (in words): FZ-treated Balb/c mice, FIG. 5A
Experimental: Male Balb/c mice were purchased from the Animal Center, College of Medicine, National Taiwan University (NTUMC), and were housed in the air-conditioned animal quarters on a 12-h light/dark cycle (temperature 23-25° C.). The animals had free access to water and rodent laboratory chow (Purina Mills Inc.) with the experimental procedures being approved by the Institutional Care and Use Committee at NTUMC.
A sleep-time study in mice was started at the age of seven weeks (body weight ranged from 17.6-19.2 g) following experimental procedures modified from previous studies.^23 Briefly, mice were divided into three groups (at least 4 mice per group) and injected i.p. with 2 mg/kg body weight of FZ from the stock solution (0.4 mg/ml in corn oil). One minute later, mice in Group I, Group II, and Group III were injected i.v. with a vehicle control, 1 mg/ml of wild-type NfsB enzyme (dissolved in 100 mM potassium phosphate buffer, pH 7.4), and 1 mg/ml of the N71S/F124W mutant enzymes (also dissolved in 100 mM potassium phosphate buffer, pH 7.4), respectively, via the tail lateral veins of the FZ-treated mice. The ability of the treated mice to stand on a stainless steel laboratory holder was examined at various time points. A mouse was characterized as losing the reflex ability if it could not stand on the holder for 10 seconds; A mouse was defined as having regained the reflex ability if it could stand on the holder for at least 10 seconds. The time between losing and regaining the reflex ability was defined as sleep-time and recorded for each group.

[2] = 7AFZ production from FZ by purified NfsB proteins (HPLC); type: biochemical; settings: for 7AFZ formation: FZ 64 μM, purified NfsB protein 10 μg, NADPH 2 mM, 2 h at 37° C., mean±S.D. from three incubations; for production of 7AFZ compared to the wild-type enzyme (in words): anaerobic conditions, FIG. 2B
Experimental: Production of 7AFZ was performed under both aerobic or anaerobic conditions. For anaerobic incubation, nitrogen was inlet into an anaerobic incubator (Biotrace). The reaction mixture consisted of FZ (64 μM), purified NfsB proteins (10 μg), MgCl2 (3.3 mM), and NADPH (2 mM) in 100 mM potassium phosphate buffer (pH 7.4). After incubation for 2 h at 37° C., the reaction was terminated by the addition of a methanol solution (200 μl) containing bromazepam (1 μg/mL), which acted as an internal control. The reaction products were extracted via sonication and analyzed by HPLC at 240 nm with a procedure described previously.^13 The detection limit for 7AFZ or FZ was less than 3-5 ng with 83-86% of recovery.

[3] = NfsB in mice serum by direct competitive ELISA; settings: 24 hours after the injection
Experimental: The ELISA assay used in this study was a modified version of a previously described method.^24 Briefly, 96-well microtitre plates were coated with 100 μL of anti-NfsB antibody solution (4 μg/ml in PBS; 13) overnight at 4° C., then washed with PBS containing 0.05% Tween 20 (PBST) in triplicate, then incubated with a blocking buffer containing PBST and 1% BSA. NfsB standards (containing 40 μl sera of untreated mice), or samples (containing 40 μl sera from treated mice collected 1, 3, 6, 12, and 24 hours after the treatment) were placed in the above-noted blocking buffer (60 μL) and added to the wells, which were incubated overnight at 4° C. Enzyme tracer solution (100 μl 6×His mAb/HRP, 1:10,000 in PBS) were added to the wells and incubated at 37° C. for 30 min Subsequently, the wells were washed and TMB substrate solution was added (100 μl). After incubation for 15 min at room temperature, a sulfuric acid solution (2N, 50 μl) was added to stop color development. The absorbance was measured at 450 nm. […] NfsB concentration in the sera samples of the treated groups were calculated based on the standard curve.

[4] = Kinetic study monitoring the rate of FZ disappearance (standard nitroreductase assay of E. coli NfsB); type: biochemical; settings: aerobic; for Km / Vmax: FZ 4-256 μM, linear plot; for Km / Vmax / Specific activity / Specific activity relative to wild type: NADPH 2 mM; for Specific activity / Specific activity relative to wild type: against FZ
Experimental: A kinetic study was carried out by monitoring the rate of FZ disappearance. FZ (4-256 μM) was incubated with purified NfsB proteins (10 μg) under the aerobic conditions described above for 2 h in the presence of NADPH at a fixed concentration of 2 mM.
Data were analyzed and calculated via linear plot (13). The amounts of FZ were obtained via the standard nitroreductase assay of E. coli NfsB in the presence of a fixed concentration of cofactor NADPH (2 mM).

CN1C(=O)CN=C(c2ccccc2F)c2cc([N+](=O)[O-])ccc21 [FZ, flunitrazepam]
inhibitory effect (zones of inhibition) on E. coli cells [1]: neither exhibited toxicity nor increased MTZ toxicity; also recorded: did not show any inhibitory effect

Cc1ncc([N+](=O)[O-])n1CCO [Metronidazole, metronidazole]
inhibitory effect (zones of inhibition) on E. coli cells [1]: dose-dependent

B1: Wild type: Wild-type E. coli type I nitroreductase NfsB (NP-415110; SEQ ID NO:1), His-tagged recombinant protein (protein)
chain: MDIISVALKRHSTKAFDASKKLTPEQAEQIKTLLQYSPSSTNSQPWHFIVASTEEGKARVAKSAAGNYVFNERKMLDASHVVVFCAKTAMDDVWLKLVVDQEDADGRFATPEAKAANDKGRKFFADMHRKDLHDDAEWMAKQVYLNVGNFLLGVAALGLDAVPIEGFDAAILDAEFGLKEKGYTSLVVVPVGHHSVEDFNATLPKSRLPQNITLTEV
modifications: His tag; E. coli
effect on sleep-time in treated mice (in words) (FZ-induced hypnosis): significantly reduced the sleep-time | 7AFZ formation ([2]; aerobic): 29.52 ± 6.6 ng | 7AFZ formation ([2]; anaerobic): 51.85 ± 2.19 ng | enzyme remaining in the serum [3]: 30% | Km [4]: 71.4 µM | Vmax [4]: 1.89 µM/min | Specific activity [4]: 82.9 nmol/min/mg protein | Specific activity relative to wild type [4]: 1.0 fold

B2: N71S (protein)
chain: B1 chain with N71S
7AFZ formation relative to wild-type enzyme ([2]; anaerobic): 2.4 fold | production of 7AFZ compared to the wild-type enzyme (in words) [2]: significantly increased | 7AFZ formation ([2]; anaerobic): 126 ± 2.06 ng

B3: T41L (protein)
chain: B1 chain with T41L
production of 7AFZ compared to the wild-type enzyme (in words) [2]: significantly increased

B4: F124Y (protein)
chain: B1 chain with F124Y
production of 7AFZ compared to the wild-type enzyme (in words) [2]: higher activity

B5: F124H (protein)
chain: B1 chain with F124H
production of 7AFZ compared to the wild-type enzyme (in words) [2]: significantly increased

B6: N71S/F124W: Double mutant N71S/F124W of E. coli type I nitroreductase NfsB (protein)
chain: B1 chain with N71S, F124W
effect on sleep-time in treated mice (in words) (FZ-induced hypnosis): significantly reduced the sleep-time | decrease of sleeping time compared to the vehicle group (FZ-induced hypnosis; FZ-treated mice): 50% | sleeping time (FZ-induced hypnosis; FZ-treated mice, enzyme 1 mg/ml i.v. one minute after FZ): 138 ± 22 min | 7AFZ formation relative to wild-type enzyme ([2]; aerobic): 11.77 fold | 7AFZ formation ([2]; aerobic): 347.56 ± 16.59 ng | 7AFZ formation relative to wild-type enzyme ([2]; anaerobic): 5.6 fold | 7AFZ formation ([2]; anaerobic): 290.52 ± 18.38 ng | Km [4]: 111 µM | Vmax [4]: 3.13 µM/min | Vmax relative to wild-type enzyme [4]: 1.7 fold | Specific activity [4]: 195.5 nmol/min/mg protein | Specific activity relative to wild type [4]: 2.4 fold

B7: F70Y (protein)
chain: B1 chain with F70Y
production of 7AFZ compared to the wild-type enzyme (in words) [2]: higher activity

B8: F70H (protein)
chain: B1 chain with F70H
production of 7AFZ compared to the wild-type enzyme (in words) [2]: higher activity

B9: Y68G (protein)
chain: B1 chain with Y68G
production of 7AFZ compared to the wild-type enzyme (in words) [2]: significantly increased

B10: S40G (protein)
chain: B1 chain with S40G
production of 7AFZ compared to the wild-type enzyme (in words) [2]: higher activity

B11: F124W (protein)
chain: B1 chain with F124W
7AFZ formation relative to wild-type enzyme ([2]; anaerobic): 2.7 fold | production of 7AFZ compared to the wild-type enzyme (in words) [2]: significantly increased | 7AFZ formation ([2]; anaerobic): 141.88 ± 5.28 ng
